The assay addresses purified IgG1. Briefly: ELISA on dilutions of purified isotype standards.

Substance “anti-mouse IgG1 secondary antibody (tool reagent)” showed a greater affinity than the IgG2a antibody pair of 40%.

The record behind these values is US20110110981A1.
